Assay results from the supplement of paper PMC10567573.

B1: OAS1 (parent)
chain: YIGTHEYPHFSHRPSTLQAASTPQ

Variants of: B1
Assay: protein stability index of a GFP-peptide fusion (GPS, HEK-293T) (PSI 1-6); higher = more stable
Conditions: c terminus: a fixed tail appended
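Note: lentivirally expressed fusions sorted by FACS into six bins by GFP to DsRed ratio, PSI derived from sequencing read proportions per bin multiplied by bin number.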

Variant	protein stability index
YIGTHEYWHFSHRPSTLQAASTPQ [P8W]	1.74
YIGTHEYDHFSHRPSTLQAASTPQ [P8D]	2.35
YIGTHEYCHFSHRPSTLQAASTPQ [P8C]	2.12
YIGTHEYAHFSHRPSTLQAASTPQ [P8A]	1.74
YIGTHEYTHFSHRPSTLQAASTPQ [P8T]	1.54
YIGTHEYNHFSHRPSTLQAASTPQ [P8N]	2.05
YIGTHEYFHFSHRPSTLQAASTPQ [P8F]	2.44
YIGTHEYRHFSHRPSTLQAASTPQ [P8R]	1.63
YIGTHEYGHFSHRPSTLQAASTPQ [P8G]	1.39
YIGTHEYLHFSHRPSTLQAASTPQ [P8L]	1.91
YIGTHEYHHFSHRPSTLQAASTPQ [P8H]	2.45
YIGTHEYMHFSHRPSTLQAASTPQ [P8M]	1.91
YIGTHEYQHFSHRPSTLQAASTPQ [P8Q]	1.95
YIGTHEYKHFSHRPSTLQAASTPQ [P8K]	2.08
YIGTHEYYHFSHRPSTLQAASTPQ [P8Y]	1.92
YIGTHEYEHFSHRPSTLQAASTPQ [P8E]	2.79
YIGTHEYVHFSHRPSTLQAASTPQ [P8V]	2
YIGTHEYIHFSHRPSTLQAASTPQ [P8I]	2.02
YIGTHEYSHFSHRPSTLQAASTPQ [P8S]	1.95
YIGTHEYPHFLHRPSTLQAASTPQ [S11L]	2.54
YIGTHEYPHFQHRPSTLQAASTPQ [S11Q]	2.71
YIGTHEYPHFTHRPSTLQAASTPQ [S11T]	1.76
YIGTHEYPHFIHRPSTLQAASTPQ [S11I]	2.71
YIGTHEYPHFCHRPSTLQAASTPQ [S11C]	2.65

Variant	protein stability index
YIGTHEYPHFMHRPSTLQAASTPQ [S11M]	1.93
YIGTHEYPHFYHRPSTLQAASTPQ [S11Y]	3.04
YIGTHEYPHFPHRPSTLQAASTPQ [S11P]	2.44
YIGTHEYPHFRHRPSTLQAASTPQ [S11R]	2.09
YIGTHEYPHFDHRPSTLQAASTPQ [S11D]	2.64
YIGTHEYPHFGHRPSTLQAASTPQ [S11G]	2.14
YIGTHEYPHFVHRPSTLQAASTPQ [S11V]	2.85
YIGTHEYPHFHHRPSTLQAASTPQ [S11H]	1.98
YIGTHEYPHFWHRPSTLQAASTPQ [S11W]	2.76
YIGTHEYPHFAHRPSTLQAASTPQ [S11A]	1.96
YIGTHEYPHFKHRPSTLQAASTPQ [S11K]	1.92
YIGTHEYPHFFHRPSTLQAASTPQ [S11F]	3.55
YIGTHEYPHFNHRPSTLQAASTPQ [S11N]	2.31
YIGTHEYPHFEHRPSTLQAASTPQ [S11E]	2.56
YIGTHESPHFSHRPSTLQAASTPQ [Y7S]	2.55
YIGTHEAPHFSHRPSTLQAASTPQ [Y7A]	2.23
YIGTHEDPHFSHRPSTLQAASTPQ [Y7D]	3.16
YIGTHEKPHFSHRPSTLQAASTPQ [Y7K]	3.34
YIGTHEIPHFSHRPSTLQAASTPQ [Y7I]	2.44
YIGTHERPHFSHRPSTLQAASTPQ [Y7R]	2.12
YIGTHEVPHFSHRPSTLQAASTPQ [Y7V]	2.12
YIGTHEGPHFSHRPSTLQAASTPQ [Y7G]	1.98
YIGTHEQPHFSHRPSTLQAASTPQ [Y7Q]	2.65
YIGTHETPHFSHRPSTLQAASTPQ [Y7T]	2.3

Variant	protein stability index
YIGTHEEPHFSHRPSTLQAASTPQ [Y7E]	3.16
YIGTHELPHFSHRPSTLQAASTPQ [Y7L]	2.06
YIGTHENPHFSHRPSTLQAASTPQ [Y7N]	2.15
YIGTHEMPHFSHRPSTLQAASTPQ [Y7M]	2.37
YIGTHEHPHFSHRPSTLQAASTPQ [Y7H]	2.18
YIGTHEFPHFSHRPSTLQAASTPQ [Y7F]	1.68
YIGTHECPHFSHRPSTLQAASTPQ [Y7C]	2.49
YIGTHKYPHFSHRPSTLQAASTPQ [E6K]	2.06
YIGTHCYPHFSHRPSTLQAASTPQ [E6C]	2.26
YIGTHGYPHFSHRPSTLQAASTPQ [E6G]	1.81
YIGTHFYPHFSHRPSTLQAASTPQ [E6F]	3.8
YIGTHTYPHFSHRPSTLQAASTPQ [E6T]	2.14
YIGTHHYPHFSHRPSTLQAASTPQ [E6H]	2.32
YIGTHAYPHFSHRPSTLQAASTPQ [E6A]	2
YIGTHNYPHFSHRPSTLQAASTPQ [E6N]	2.18
YIGTHWYPHFSHRPSTLQAASTPQ [E6W]	3.29
YIGTHQYPHFSHRPSTLQAASTPQ [E6Q]	1.68
YIGTHRYPHFSHRPSTLQAASTPQ [E6R]	1.61
YIGTHYYPHFSHRPSTLQAASTPQ [E6Y]	1.89
YIGTHLYPHFSHRPSTLQAASTPQ [E6L]	2.99
YIGTHVYPHFSHRPSTLQAASTPQ [E6V]	1.88
YIGTHPYPHFSHRPSTLQAASTPQ [E6P]	1.5
YIGTHDYPHFSHRPSTLQAASTPQ [E6D]	1.92
YIGTHMYPHFSHRPSTLQAASTPQ [E6M]	1.46

Variant	protein stability index
YIGTHIYPHFSHRPSTLQAASTPQ [E6I]	1.75
YIGTHSYPHFSHRPSTLQAASTPQ [E6S]	1.79
YIGSHEYPHFSHRPSTLQAASTPQ [T4S]	1.89
YIGWHEYPHFSHRPSTLQAASTPQ [T4W]	2.89
YIGPHEYPHFSHRPSTLQAASTPQ [T4P]	2.34
YIGRHEYPHFSHRPSTLQAASTPQ [T4R]	1.7
YIGNHEYPHFSHRPSTLQAASTPQ [T4N]	2.2
YIGHHEYPHFSHRPSTLQAASTPQ [T4H]	1.95
YIGVHEYPHFSHRPSTLQAASTPQ [T4V]	1.76
YIGKHEYPHFSHRPSTLQAASTPQ [T4K]	2.15
YIGIHEYPHFSHRPSTLQAASTPQ [T4I]	1.84
YIGYHEYPHFSHRPSTLQAASTPQ [T4Y]	1.84
YIGQHEYPHFSHRPSTLQAASTPQ [T4Q]	1.89
YIGLHEYPHFSHRPSTLQAASTPQ [T4L]	1.81
YIGMHEYPHFSHRPSTLQAASTPQ [T4M]	2.15
YIGTHEYPHFSHIPSTLQAASTPQ [R13I]	1.92
YIGTHEYPHFSHHPSTLQAASTPQ [R13H]	2.29
YIGTHEYPHFSHQPSTLQAASTPQ [R13Q]	1.99
YIGTHEYPHFSHMPSTLQAASTPQ [R13M]	2.19
YIGTHEYPHFSHWPSTLQAASTPQ [R13W]	3.13
YIGTHEYPHFSHSPSTLQAASTPQ [R13S]	2.18
YIGTHEYPHFSHAPSTLQAASTPQ [R13A]	2.58
YIGTHEYPHFSHNPSTLQAASTPQ [R13N]	1.8
YIGTHEYPHFSHEPSTLQAASTPQ [R13E]	2.19

Variant	protein stability index
YIGTHEYPHFSHTPSTLQAASTPQ [R13T]	1.79
YIGTHEYPHFSHCPSTLQAASTPQ [R13C]	1.26
YIGTHEYPHFSHKPSTLQAASTPQ [R13K]	2.12
YIGTHEYPHFSHYPSTLQAASTPQ [R13Y]	2.09
YIGTHEYPHFSHVPSTLQAASTPQ [R13V]	2.67
YIGTHEYPHFSHLPSTLQAASTPQ [R13L]	1.66
YIGTHEYPHFSHFPSTLQAASTPQ [R13F]	1.33
YIGTHEYPHFSHDPSTLQAASTPQ [R13D]	2.52
YIGTHEYPHFSHGPSTLQAASTPQ [R13G]	1.92
YIGTHEYPHASHRPSTLQAASTPQ [F10A]	2.57
YIGTHEYPHCSHRPSTLQAASTPQ [F10C]	2.24
YIGTHEYPHHSHRPSTLQAASTPQ [F10H]	2.56
YIGTHEYPHMSHRPSTLQAASTPQ [F10M]	2.73
YIGTHEYPHSSHRPSTLQAASTPQ [F10S]	2.9
YIGTHEYPHKSHRPSTLQAASTPQ [F10K]	2.73
YIGTHEYPHESHRPSTLQAASTPQ [F10E]	3.25
YIGTHEYPHNSHRPSTLQAASTPQ [F10N]	2.43
YIGTHEYPHLSHRPSTLQAASTPQ [F10L]	2.53
YIGTHEYPHQSHRPSTLQAASTPQ [F10Q]	2.41
YIGTHEYPHVSHRPSTLQAASTPQ [F10V]	2.12
YIGTHEYPHGSHRPSTLQAASTPQ [F10G]	2.88
YIGTHEYPHTSHRPSTLQAASTPQ [F10T]	2.48
YIGTHEYPHRSHRPSTLQAASTPQ [F10R]	2.19
YIGTHEYPHISHRPSTLQAASTPQ [F10I]	2.27

Variant	protein stability index
YIGTHEYPHYSHRPSTLQAASTPQ [F10Y]	1.79
YIGTHEYPHWSHRPSTLQAASTPQ [F10W]	1.89
YIGTHEYPHDSHRPSTLQAASTPQ [F10D]	3.14
YIGTHEYPHPSHRPSTLQAASTPQ [F10P]	2.06
YIGTHEYPQFSHRPSTLQAASTPQ [H9Q]	2.12
YIGTHEYPNFSHRPSTLQAASTPQ [H9N]	2.4
YIGTHEYPMFSHRPSTLQAASTPQ [H9M]	2.33
YIGTHEYPPFSHRPSTLQAASTPQ [H9P]	1.44
YIGTHEYPSFSHRPSTLQAASTPQ [H9S]	2.09
YIGTHEYPEFSHRPSTLQAASTPQ [H9E]	3.17
YIGTHEYPIFSHRPSTLQAASTPQ [H9I]	2.18
YIGTHEYPCFSHRPSTLQAASTPQ [H9C]	1.48
YIGTHEYPVFSHRPSTLQAASTPQ [H9V]	1.78
YIGTHEYPWFSHRPSTLQAASTPQ [H9W]	3.41
YIGTHEYPKFSHRPSTLQAASTPQ [H9K]	1.94
YIGTHEYPRFSHRPSTLQAASTPQ [H9R]	2.08
YIGTHEYPLFSHRPSTLQAASTPQ [H9L]	1.67
YIGTHEYPFFSHRPSTLQAASTPQ [H9F]	2.2
YIGTHEYPYFSHRPSTLQAASTPQ [H9Y]	2.83
YIGTHEYPDFSHRPSTLQAASTPQ [H9D]	2.75
YIGTHEYPTFSHRPSTLQAASTPQ [H9T]	2.09
YIGTHEYPAFSHRPSTLQAASTPQ [H9A]	1.87
YIGTHEYPGFSHRPSTLQAASTPQ [H9G]	1.95
YIGTHEYPHFSDRPSTLQAASTPQ [H12D]	2.49

Variant	protein stability index
YIGTHEYPHFSGRPSTLQAASTPQ [H12G]	1.71
YIGTHEYPHFSFRPSTLQAASTPQ [H12F]	2.21
YIGTHEYPHFSPRPSTLQAASTPQ [H12P]	2.15
YIGTHEYPHFSQRPSTLQAASTPQ [H12Q]	2.23
YIGTHEYPHFSCRPSTLQAASTPQ [H12C]	2.64
YIGTHEYPHFSARPSTLQAASTPQ [H12A]	1.97
YIGTHEYPHFSYRPSTLQAASTPQ [H12Y]	1.92
YIGTHEYPHFSKRPSTLQAASTPQ [H12K]	2.07
YIGTHEYPHFSVRPSTLQAASTPQ [H12V]	1.93
YIGTHEYPHFSERPSTLQAASTPQ [H12E]	2.25
YIGTHEYPHFSSRPSTLQAASTPQ [H12S]	1.83
YIGTHEYPHFSRRPSTLQAASTPQ [H12R]	2.55
YIGTHEYPHFSWRPSTLQAASTPQ [H12W]	1.46
YIGTHEYPHFSIRPSTLQAASTPQ [H12I]	1.72
YIGTHEYPHFSMRPSTLQAASTPQ [H12M]	1.68
YIGTHEYPHFSTRPSTLQAASTPQ [H12T]	2.03
YIGTHEYPHFSNRPSTLQAASTPQ [H12N]	2.12
YIGTHEYPHFSLRPSTLQAASTPQ [H12L]	2.39
YIGTCEYPHFSHRPSTLQAASTPQ [H5C]	1.75
YIGTQEYPHFSHRPSTLQAASTPQ [H5Q]	2.38
YIGTGEYPHFSHRPSTLQAASTPQ [H5G]	2.09
YIGTPEYPHFSHRPSTLQAASTPQ [H5P]	2.45
YIGTMEYPHFSHRPSTLQAASTPQ [H5M]	2.14
YIGTKEYPHFSHRPSTLQAASTPQ [H5K]	2.47

Variant	protein stability index
YIGTEEYPHFSHRPSTLQAASTPQ [H5E]	2.53
YIGTLEYPHFSHRPSTLQAASTPQ [H5L]	2.12
YIGTAEYPHFSHRPSTLQAASTPQ [H5A]	1.72
YIGTWEYPHFSHRPSTLQAASTPQ [H5W]	2.29
YIGTVEYPHFSHRPSTLQAASTPQ [H5V]	2.23
YIGTNEYPHFSHRPSTLQAASTPQ [H5N]	2.03
YIGTREYPHFSHRPSTLQAASTPQ [H5R]	2.35
YIGTFEYPHFSHRPSTLQAASTPQ [H5F]	2.28
YIGTIEYPHFSHRPSTLQAASTPQ [H5I]	1.93
YIGTDEYPHFSHRPSTLQAASTPQ [H5D]	2.52
YIGTYEYPHFSHRPSTLQAASTPQ [H5Y]	1.83
YIGTTEYPHFSHRPSTLQAASTPQ [H5T]	2.3
YIGTSEYPHFSHRPSTLQAASTPQ [H5S]	1.94
YIGTHEYPHFSHRHSTLQAASTPQ [P14H]	2.1
YIGTHEYPHFSHRCSTLQAASTPQ [P14C]	1.78
YIGTHEYPHFSHRFSTLQAASTPQ [P14F]	1.49
YIGTHEYPHFSHRDSTLQAASTPQ [P14D]	2.1
YIGTHEYPHFSHRESTLQAASTPQ [P14E]	2.17
YIGTHEYPHFSHRGSTLQAASTPQ [P14G]	2.21
YIGTHEYPHFSHRASTLQAASTPQ [P14A]	1.81
